According to patent publication US20240376180A1 (DEUTSCHES ZENTRUM FUR NEURODEGENERATIVE ERKRANKUNGEN E V …, published 2024):

T1: Fc fusion protein of the RBD-SD1 region of MERS-CoV (MERS-CoV, UniProt K9N5Q8 367-655)
T1 sequence: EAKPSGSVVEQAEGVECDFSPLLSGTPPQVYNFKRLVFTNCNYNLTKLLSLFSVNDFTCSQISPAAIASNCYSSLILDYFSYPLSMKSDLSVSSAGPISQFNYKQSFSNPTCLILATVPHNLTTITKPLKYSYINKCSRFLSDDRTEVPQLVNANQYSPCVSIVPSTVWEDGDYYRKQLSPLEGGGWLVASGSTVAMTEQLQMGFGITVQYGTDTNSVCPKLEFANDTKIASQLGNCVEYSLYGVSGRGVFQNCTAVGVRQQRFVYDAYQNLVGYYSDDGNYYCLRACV

T2: Fc fusion protein of the RBD-SD1 region of HCoV-HKU1 (HCoV-HKU1, UniProt Q5MQD0 310-677)
T2 construct: domain: RBD-SD1 region
T2 sequence: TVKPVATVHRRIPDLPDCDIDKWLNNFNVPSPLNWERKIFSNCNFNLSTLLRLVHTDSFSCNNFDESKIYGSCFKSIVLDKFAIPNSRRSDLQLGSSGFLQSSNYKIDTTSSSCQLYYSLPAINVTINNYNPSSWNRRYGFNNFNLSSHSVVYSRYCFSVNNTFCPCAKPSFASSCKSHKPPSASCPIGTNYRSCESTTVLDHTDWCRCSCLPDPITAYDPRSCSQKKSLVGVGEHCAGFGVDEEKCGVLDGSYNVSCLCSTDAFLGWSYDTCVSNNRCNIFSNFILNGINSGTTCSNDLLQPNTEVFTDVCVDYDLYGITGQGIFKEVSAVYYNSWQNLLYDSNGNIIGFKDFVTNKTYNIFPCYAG

T3: Fc fusion protein of the RBD-SD1 region of HCoV-OC43 (HCoV-OC43, UniProt P36334 318-675)
T3 construct: domain: RBD-SD1 region
T3 sequence: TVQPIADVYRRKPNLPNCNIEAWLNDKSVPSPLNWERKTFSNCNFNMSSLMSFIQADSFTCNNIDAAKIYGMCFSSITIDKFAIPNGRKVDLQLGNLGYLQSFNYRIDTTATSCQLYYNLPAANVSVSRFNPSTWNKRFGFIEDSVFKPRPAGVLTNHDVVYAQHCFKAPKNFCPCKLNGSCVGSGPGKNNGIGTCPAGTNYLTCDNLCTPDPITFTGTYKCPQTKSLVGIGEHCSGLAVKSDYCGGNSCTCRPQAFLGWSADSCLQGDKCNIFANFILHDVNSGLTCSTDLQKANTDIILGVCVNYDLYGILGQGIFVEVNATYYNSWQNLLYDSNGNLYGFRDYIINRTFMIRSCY

B1: HL CV07-315 (antibody, V domains shown)
VH: EVQLVESGGGLVQPGRSLRLSCAASGFTFDDYAMHWVRQAPGKGLEWVSGISWNSGSIGYADSVKGRFTISRDNAKNSLYLQMNSLRAEDTALYYCAKDFLWDLHPPRYYGMDVWGQGTTVTVSS
VL: QSVLTRPPSVSAAPGQKVTISCSGSSSNIGNNYVSWYQQLPGTAPKLLIYENNKRPSGIPDRFSGSKSGTSATLGITGLQTGDEADYYCGTWDSSLNGVFGGGTKLTVLG
B2: HK CVX1-126 (antibody, V domains shown)
VH: EVQLVESGGGLVQPGGSLRLSCAASGLTVSSNYMSWVRQAPGKGLEWVSVIYSGGSTYYADSVKGRFTISRHNSKNTLYLQMNSVRAEDTAVYYCARDLSEGGMDVWGQGTTVTVSS
VL: DIQMTQSPSSVSASVGDRVTITCRASQGISSWLAWYQQKPGKAPKLLIYAASTLQSGVPSRFSGSGSGTDFTLTISSLQPEDFATYYCQQANGFPPLFGGGTKVEIKR
B3: HL CV07-222 (antibody, V domains shown)
VH: QVQLVQSGAEVKKPGASVKVSCKASGYTFTDYYVHWVRQAPGQGLEWMGWINPISGGTNYAQKFQGRVTMTRDTSISTAYMELSRLRSDDTAVYYCARGPYYYDSSGSLGAFDIWGQGTMVTVSS
VL: QSALTQPASVSGSPGQSITISCTGTSSDVGSYNLVSWYQQHPGKAPKLMIYEGSKRPSGVSNRFSGSKSGNTASLTISGLQAEDEAHYYCCSYAGGSTSYVFGTGTKVTVLG
B4: HL CV07-250 (antibody, V domains shown)
VH: QVQLVQSEAEVKEPGASVEVSCKASGYNFTNFAISWVRQAPGQGLEWMGWISGYNGDTNSAQKFLGRVTMTTDTSTTTAYMELRSLRSDDTAVYYCAGSDNYGFPYNGMDVWGQGTTVTVSS
VL: QSALTQPPSASGSPGQSVTISCTGTSSDLGAYHFVTWYQHYPGKAPKVMIYGVRKRPSGVPDRFSGSKSGNTASLTVSGLQDEDEADYYCSSYAGNNDFVFGGGTKLTVLS
B5: HK CV38-113 (antibody, V domains shown)
VH: EVQLVESGGGLVQPGGSLRLSCAASGFTVSSNYMSWVRQAPGKGLEWVSVIYSGGSTYYADSVKGRFTISRHNSKNTLYLQMNSLRAEDTAVYFCARGGRLADAAGDYWGQGTLVTVSS
VL: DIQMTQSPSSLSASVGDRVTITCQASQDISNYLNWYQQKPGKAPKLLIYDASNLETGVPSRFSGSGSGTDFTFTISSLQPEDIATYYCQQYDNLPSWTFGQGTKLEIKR
B6: HL CV07-262 (antibody, V domains shown)
VH: QVQLVQSGAEVKKPGASVKVSCKASGYTFTGYYMHWVRQAPGQGLEWMGWINPNSGGTNYAQTFQGRVTMTRDTSITTTYMELSRLRSDDTAVYYCARVGWYDFGTPGDYYYYYGMDVWGQGTTVTVSS
VL: QSALTQPASVSGSPGQSITISCTGTSSDVGSYNLVSWYQQHPGKAPKLMIYEGSKRPSGVSNRFSGSKSGNTASLTISGLQAEDEADYFCCSYAGTSTFVFGTGTKVTVLG
B7: HK CV07-287 (antibody, V domains shown)
VH: QVQLVQSGPEVKKPGTSVKVSCKASGFTFTSSAMQWVRQARGQRLEWIGWIVVGSGNTNYAQKFQERVTITRDMSTSTAYMELSSLRSEDTAVYYCAAPYCSSTNCYDAFDIWGQGTMVTVSS
VL: not shown
B8: HK CV07-209 (antibody, V domains shown)
VH: QVQLVESGGGLVKPGGSLRLSCAASGFTFSDYYMSWIRQAPGKGLEWVSYISSSVSTIYYADSVKGRFTISRDNAKNSLYLQMNSLRAEDTAVYYCARDGVIPPRFDYWGQGTLVTVSS
VL: not shown
B9: HL CV07-283 (antibody, V domains shown)
VH: QVQLVQSGAEVKKPGASAKVSCKASGYTFTGYYIHWVRQAPGQGLEWMGLINPISGGTNYAQKFQDRVTMTRDTSISTAYMELSRLRSDDTAVYYCVRGPFYYDSSGPLGGMDVWGQGTTVTVSS
VL: QSALTQPASVSGSPGQSITISCTGTSGDVGGYNYVSWYQQHPGKAPKLMIYEVSNRPSGVSNRFSGSKSGNTASLTISGLQAEDEADYYCSSYTSSSTYVFGTGTKVTVLG
B10: HK CV38-142 (antibody, V domains shown)
VH: EVQLVQSGAEVKKPGESLKISCQGSGYSFTSYWIGWVRQMPGKGLEWMGIIYPGESDTRYSSSFQGHVTISADKSISTAYLQWSSLKASDTAMYYCARIRGVYSSGWIGGDYWGQGTLVTVSS
VL: not shown

Target: SARS-CoV-2 S protein-RBD-mFc (SARS-CoV-2, UniProt P0DTC2 319-537)
Experiment: not given

Row | Binder | Kd
1 | B1 | 0.0112 nM
2 | B2 | 0.243 nM
3 | B3 | 0.00697 nM
4 | B4 | 0.0564 nM
5 | B5 | 0.134 nM
6 | B6 | 0.079 nM
7 | B7 | 0.16 nM
8 | B8 | 0.006 nM
9 | B9 | 0.0475 nM

Target: SARS-CoV-2 spike on S-pseudotyped MLV virions (SARS-CoV-2, UniProt P0DTC2 14-1255)
Experiment: cell-based or functional assay

Row | Binder | pseudovirus neutralization assay, potency (IC50)
10 | B10 | 3.5 µg/mL

Target: SARS-CoV spike on S-pseudotyped MLV virions (SARS-CoV)
Experiment: cell-based or functional assay

Row | Binder | pseudovirus neutralization assay, potency (IC50)
11 | B10 | 1.4 µg/mL

Target: beta-2 microglobulin (Homo sapiens (Human), UniProt P61769 21-119)
Experiment: routine laboratory ELISA

beta-2 microglobulin, sequence (P61769 21-119 limits assumed): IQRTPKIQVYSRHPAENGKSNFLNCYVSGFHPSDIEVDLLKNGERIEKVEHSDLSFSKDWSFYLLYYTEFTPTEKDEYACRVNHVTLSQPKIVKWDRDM

Row | Binder | binding result
12 | B1 | no binding (tested: 50 µg/ml)
13 | B2 | no binding (tested: 50 µg/ml)
14 | B3 | no binding (tested: 50 µg/ml)
15 | B4 | no binding (tested: 50 µg/ml)
16 | B5 | no binding (tested: 50 µg/ml)
17 | B10 | no binding (tested: 50 µg/ml)
18 | B6 | no binding (tested: 50 µg/ml)
19 | B7 | no binding (tested: 50 µg/ml)
20 | B8 | no binding (tested: 50 µg/ml)
21 | B9 | no binding (tested: 50 µg/ml)

Target: T4, Spike protein of authentic SARS-CoV-2 (Munich isolate 984) (SARS-CoV-2, UniProt P0DTC2 14-1273)
Experiment: cell-based or functional assay
Parameters: IC90 Neutralizing Assay: unit not given beside the values

Row | Binder | IC50 Neutralizing Assay | IC90 Neutralizing Assay
22 | B1 | ~50 ng/mL | 
23 | B3 | < 50 ng/mL | 
24 | B4 |  | > 500
25 | B5 | ~50 ng/mL | 
26 | B10 | ~50 ng/mL | 
27 | B6 | < 50 ng/mL | ~500
28 | B7 |  | > 500
29 | B8 | < 50 ng/mL | 
30 | B9 | ~50 ng/mL | > 500

Target: T4, Spike protein of authentic SARS-CoV-2 …
Experiment: cell-based or functional assay
Remark: another data set of the same source

Row | Binder | IC50 (PRNT, authentic SARS-CoV-2)
31 | B1 | 24.9 ng/mL
32 | B2 | 71.7 ng/mL
33 | B3 | 7.8 ng/mL
34 | B4 | 3.5 ng/mL
35 | B5 | 20.8 ng/mL
36 | B10 | 23.2 ng/mL
37 | B6 | 7.1 ng/mL
38 | B7 | 41.7 ng/mL
39 | B8 | 3.1 ng/mL
40 | B9 | 16.9 ng/mL

Target: Fc fusion protein of the RBD-SD1 region of SARS-CoV (SARS-CoV, UniProt P59594 306-577)
Experiment: ELISA on captured RBD-SD1-Fc

Row | Binder | binding result
41 | B1 | no binding (tested: 1 µg/ml)
42 | B2 | no binding (tested: 1 µg/ml)
43 | B3 | no binding (tested: 1 µg/ml)
44 | B4 | no binding (tested: 1 µg/ml)
45 | B5 | no binding (tested: 1 µg/ml)
46 | B6 | no binding (tested: 1 µg/ml)
47 | B7 | no binding (tested: 1 µg/ml)
48 | B8 | no binding (tested: 1 µg/ml)
49 | B9 | no binding (tested: 1 µg/ml)

Target: T1, Fc fusion protein of the RBD-SD1 region …
Experiment: ELISA on captured RBD-SD1-Fc

Row | Binder | binding result
50 | B1 | no binding (tested: 1 µg/ml)
51 | B2 | no binding (tested: 1 µg/ml)
52 | B3 | no binding (tested: 1 µg/ml)
53 | B4 | no binding (tested: 1 µg/ml)
54 | B5 | no binding (tested: 1 µg/ml)
55 | B6 | no binding (tested: 1 µg/ml)
56 | B7 | no binding (tested: 1 µg/ml)
57 | B8 | no binding (tested: 1 µg/ml)
58 | B9 | no binding (tested: 1 µg/ml)

Target: T2, Fc fusion protein of the RBD-SD1 region …
Experiment: ELISA on captured RBD-SD1-Fc

Row | Binder | binding result
59 | B1 | no binding (tested: 1 µg/ml)
60 | B2 | no binding (tested: 1 µg/ml)
61 | B3 | no binding (tested: 1 µg/ml)
62 | B4 | no binding (tested: 1 µg/ml)
63 | B5 | no binding (tested: 1 µg/ml)
64 | B6 | no binding (tested: 1 µg/ml)
65 | B7 | no binding (tested: 1 µg/ml)
66 | B8 | no binding (tested: 1 µg/ml)
67 | B9 | no binding (tested: 1 µg/ml)

Target: T3, Fc fusion protein of the RBD-SD1 region …
Experiment: ELISA on captured RBD-SD1-Fc

Row | Binder | binding result
68 | B1 | no binding (tested: 1 µg/ml)
69 | B2 | no binding (tested: 1 µg/ml)
70 | B3 | no binding (tested: 1 µg/ml)
71 | B4 | no binding (tested: 1 µg/ml)
72 | B5 | no binding (tested: 1 µg/ml)
73 | B6 | no binding (tested: 1 µg/ml)
74 | B7 | no binding (tested: 1 µg/ml)
75 | B8 | no binding (tested: 1 µg/ml)
76 | B9 | no binding (tested: 1 µg/ml)
